{
  "source": "paper PMC5057102",
  "about": "“Fabrication of an antibody-aptamer sandwich assay for electrochemical evaluation of levels of β-amyloid oligomers”",
  "key": {"[1]": {"target": "Amyloid beta 1-40 oligomers (UniProt P05067 672-711)", "sequence (P05067 672-711)": "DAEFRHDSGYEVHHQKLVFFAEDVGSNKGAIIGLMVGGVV", "test": "electrochemical antibody-aptamer sandwich (DPV); 20 nM, antibody capture; response similar to 1-42 oligomers; 0.1 M phosphate buffer (Na2HPO4/NaH2PO4) pH 7.4; incubations at 37 C (Abeta 60 min, aptamer-Au-Th 3 h); 1% BSA block", "conditions": "label: gold nanoparticle, thionine"}, "[2]": {"target": "Amyloid beta 1-42 oligomers (UniProt P05067 672-713)", "sequence (P05067 672-713)": "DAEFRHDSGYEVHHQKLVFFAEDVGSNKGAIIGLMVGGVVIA", "test": "electrochemical antibody-aptamer sandwich (DPV); 20 nM, antibody capture; 0.1 M phosphate buffer (Na2HPO4/NaH2PO4) pH 7.4; incubations at 37 C (Abeta 60 min, aptamer-Au-Th 3 h); 1% BSA block", "conditions": "label: gold nanoparticle, thionine"}},
  "data": [
    {"binder": "GCCTGTGTTGGGGCGGGTGCG (ssDNA, 5'-HS (thiol))", "note": "[Abeta oligomer aptamer (thiolated, on AuNP with thionine)]", "values": [
      {"measurement": "binding result", "setting": "[1]", "result": "binds"},
      {"measurement": "binding result", "setting": "[2]", "result": "binds"}
    ]}
  ]
}
